Reference: patent US10159707B2, “Treatment of cancers with immunostimulatory HIV Tat derivative polypeptides” (PIN Pharma, Inc., priority 2013, dated 2018)
Entries after “also recorded” stand apart in the source; their conditions may differ.

B1: Nani-P1: Tat derivative polypeptide SEQ ID NO:2; TF HIV-1, cysteine-rich HIV-1, C-terminal HIV-1 (protein)
chain: MEPVDANLEAWKHAGSQPRKTACTTCYCKKCCFHCQVCFTRKGLGISYGRKKRRQRRRAPQDSQTHQASLSKQPASQSRGDPTGPTESKKKVERETETDPFD
modifications: Tat derivative polypeptide
B2: Nani-P3: Tat derivative polypeptide SEQ ID NO:4; TF SIVsmm, cysteine-rich murine βdefensin, C-terminal HIV-1 (protein)
chain: METPLKEQENSLESCREHSSSISEVDVPTPVSCLRKGGRCWNRCIGNTRQIGSCGVPFLKCCKRKPFTRKGLGISYGRKKRRQRRRAPQDSQTHQASLSKQPASQSRGDPTGPTESKKKVERETETDPFD
modifications: Tat derivative polypeptide

Legend:
4T1 cells = test: Repeated dosing of Nani-P2 and cyclophosphamide in 4T1 tumor-bearing mice; format: in vivo, mouse; conditions: cyclophosphamide 80 mg/kg IP weekly from day 10
Experimental: Four groups of 10 BALB/c mice were implanted with 1×10^4 4 T1 cells SC into the mammary fat pad. Treatment was initiated when tumor diameters reached 4-5 mm, on day 10. Control mice were injected IV with PBS at 3 days intervals, while alternating treatment mice received 3 doses of drug every 3 days in rotating 10 day cycles. Tumor burden (tumor size mm^3) was calculated using a standard formula. CY (cyclophosphamide alone) mice were injected IP weekly with 80 mg/kg per mouse beginning on day 10. Cy/Nani-P2 (cyclophosphamide first followed by Nani-P2) mice were first injected IP with cyclophosphamide (80 mg/kg) at 3 days intervals for three doses starting at day 10 and then injected IV with Nani-P2 (40 ng) at 3 days intervals for three doses in rotation. The cycle of 3 doses of CY followed by 3 doses of Nani-P2 was repeated until day 50. Nani-P2/CY (Nani-P2 first followed by cyclophosphamide) mice were first injected IV with Nani-P2 (40 ng) at 3 day intervals for 3 doses starting on day 10 and then injected i.p. with cyclophosphamide at 3 day intervals in rotation. The cycle of 3 doses of Nani-P2 followed by 3 doses of CY was repeated until day 50.

4T1 breast tumor = test: 4T1 primary breast tumor growth in BALB/c mice; format: in vivo, mouse; conditions: 400 ng partially-purified, SC, days 0, 7, 14, 21 (Nani-P3 also 2 μg); from day 15, p<0.05
Experimental: BALB/c mice were injected (SC) with 1×10^4 4 T1, 1×10^5 TS/A or 2×10^5 SM1 cells, respectively, in the left mammary pad on day 0. […] The control group received PBS injection. […] Tumor burden (tumor volume) was measured and recorded three times weekly. Animals were sacrificed when tumors reached a volume of 15 mm in diameter and the tumors harvested and weighed.
The therapeutic effect of systemic administration of synthetic, Tat-derived compositions in murine models of breast cancer was investigated. […]

| Molecule | mice dead by day 42 (4T1 cells) | 4T1 tumor burden versus PBS control (4T1 breast tumor) |
| --- | --- | --- |
| O=P1(N(CCCl)CCCl)NCCCO1 (stereo not drawn) [cyclophosphamide, reference compound] | 10/10 |  |
| B1 |  | significantly reduced tumor burden; also recorded: significant |
| B2 |  | less effective at suppressing 4T1 primary tumor growth; also recorded: no difference |
